Tests used:
[1] = biological target: murine IL-11 (Invigate, e.g., lot #C210819-09) (mouse) (UniProt P47873); experiment: Di-complex ELISA (mIL-11 coated, canine IL11RA-hFc)
[2] = biological target: human IL-11 (Invigate, e.g., lot #C121021-19) (human) (UniProt P20809); experiment: Di-complex ELISA (hIL-11 coated, canine IL11RA-hFc)
[3] = biological target: murine IL-11 (Invigate, e.g., lot #C210819-09) (mouse) (UniProt P47873); experiment: cell-based or functional assay
[4] = biological target: human IL-11 (Invigate, e.g., lot #C121021-19) (human) (UniProt P20809); experiment: cell-based or functional assay
[5] = biological target: human IL-11 (Invigate, e.g., lot #C121021-19) (human) (UniProt P20809); experiment: Tri-complex ELISA (hIL-11, mIL-11Ra-Fc, hgp130-Fc)
[6] = biological target: murine IL-11 (Invigate, e.g., lot #C210819-09) (mouse) (UniProt P47873); experiment: Tri-complex ELISA (mIL-11, mIL-11Ra-Fc, mgp130-Fc)
[7] = biological target: murine IL-11 (Invigate, e.g., lot #C210819-09) (mouse) (UniProt P47873); experiment: SPR, antibody captured, single IL-11 concentration 200 nM
[8] = biological target: human IL-11 (Invigate, e.g., lot #C121021-19) (human) (UniProt P20809); experiment: as above
[9] = biological target: T1, murine IL-11 (mouse, UniProt P47873 22-199); experiment: SPR, antibody captured, IL-11 analyte
T1 construct: bought from Invigate; also called mIL-11; mIL11
T1 sequence: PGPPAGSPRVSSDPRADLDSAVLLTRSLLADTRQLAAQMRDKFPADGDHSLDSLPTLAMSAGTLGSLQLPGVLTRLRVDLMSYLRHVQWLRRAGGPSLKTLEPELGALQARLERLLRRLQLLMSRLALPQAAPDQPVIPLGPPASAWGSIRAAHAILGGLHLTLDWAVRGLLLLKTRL
Description: Antibodies were captured via anti-mouse Fc IgGs (“Mouse antibody capture kit, Order No. BR100383, Cytiva) covalently amine coupled to a Series S CMS sensor chip (Cytiva). The amine coupling was carried out according to the manufacturer's instructions using 1-ethyl-3-(3-dimethylaminopropyl) carbodiimide hydrochloride (EDC), N-hydroxysuccinimide ([…]) and ethanolamine HCl, pH 8.5 (“Amine Coupling Kit” BR-1000-50, Cytiva). Human IL-11 (Invigate, e.g., lot #C121021-19), and murine IL-11 (Invigate, e.g., lot #C210819-09) were used as analytes. […] Based on that experiment an IL-11 concentration range was chosen to optimally determine kinetics and affinity of anti-IL-11 antibodies in multicycle kinetics mode. The sensor surface was regenerated with glycine pH 1.7 after each antigen injection. Obtained sensorgrams were double referenced (subtraction of reference flow cell signal and buffer injection) and were fitted to a 1:1 Langmuir binding model to derive kinetic data using the Biacore T200 Evaluation software or the Biacore Insight software.
42 hits from the IL-11 and IL-2Ra screening analysis were selected, expressed by transient transfection of mammalian cells and purified as described in Example 15. Antibodies were then tested for human IL-11 and murine IL-11 binding by SPR as described in Example 16.

[10] = biological target: human IL-11 (human) (UniProt P20809); experiment: Di-complex ELISA, competitor canine IL11RA-hFc, IL-11 immobilised
[11] = biological target: T2, murine IL-11 (Invigate, e.g., lot #C210819-09) (mouse, UniProt P47873 22-199); experiment: Tri-complex ELISA (mIL-11, mIL-11Ra-Fc, mgp130-Fc)
T2 construct: Biotinylated and captured on streptavidin plates in the Di-complex ELISA; unmodified analyte in SPR; also called mIL11; mIL-11
T2 sequence: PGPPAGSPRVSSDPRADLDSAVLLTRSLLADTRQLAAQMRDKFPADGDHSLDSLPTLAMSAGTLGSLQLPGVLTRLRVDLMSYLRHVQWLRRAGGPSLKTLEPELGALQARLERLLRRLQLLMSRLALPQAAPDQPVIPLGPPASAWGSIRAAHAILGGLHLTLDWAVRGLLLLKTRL

[12] = biological target: cynomolgus IL-11 (cynomolgus) (UniProt P20808); experiment: cell-based or functional assay
[13] = biological target: human IL-11 (human) (UniProt P20809); experiment: cell-based or functional assay

For “GTX34009 (Genetex, clone 6D9A1) (antibody)”, which Efficacy (%) [1] is on record?
The Efficacy (%) was 11.7%.

What about the Efficacy (%) [2] of the same molecule?
The Efficacy (%) was 10.3%.

What about the Efficacy (%)*, RGA [3] of the same molecule?
The Efficacy (%)*, RGA was 0%.

And the Efficacy (%)*, RGA [4]?
Its Efficacy (%)*, RGA is 21.3%.

And the Efficacy (%) [5]?
The Efficacy (%) was 1.1%.

And the Efficacy (%) [6]?
Its Efficacy (%) is 0%.

What does the source list for “GTX52814 (Genetex, clone 9T27) (antibody)”?
Efficacy (%) [1]: 89.9%; IC50 [1]: 4.7 nM; Efficacy (%) [2]: 74.9%; IC50 [2]: 1.9 nM; Efficacy (%)*, RGA [3]: 75.5%; Efficacy (%)*, RGA [4]: 5.1%; Efficacy (%) [5]: 36.9%; IC50 [5]: 14 nM; Efficacy (%) [6]: 106%; IC50 [6]: 17 nM; Kd [7]: 2 nM; Kd [8]: 3.3 nM

Which Efficacy (%) [1] does the source give for LS-C104441 (LS-bio) (antibody) here?
The Efficacy (%) was 91.2%.

What about the IC50 [1] of the same molecule?
Its IC50 is 3.5 nM.

And the Efficacy (%) [2]?
Its Efficacy (%) is 71.5%.

And the IC50 [2]?
The IC50 was 5.3 nM.

What about the Efficacy (%)*, RGA [3] of the same molecule?
The Efficacy (%)*, RGA was 88%.

What about the IC50 [M], RGA [3] of the same molecule?
The IC50 [M], RGA was 3.9e-09 M.

And the Efficacy (%)*, RGA [4]?
The Efficacy (%)*, RGA was 42.6%.

And the Efficacy (%) [5]?
The Efficacy (%) was 65.6%.

What about the IC50 [5] of the same molecule?
Its IC50 is 20 nM.

What about the Efficacy (%) [6] of the same molecule?
Its Efficacy (%) is 98.4%.

What about the IC50 [6] of the same molecule?
Its IC50 is 3.8 nM.

And the Kd [7]?
The Kd was 2.2 nM.

What about the Kd [8] of the same molecule?
The Kd was 3.9 nM.

Which Efficacy (%) [1] does the source give for “LS-C193526 (LS-bio, clone KT8) (antibody)” here?
Its Efficacy (%) is 96.2%.

What about the IC50 [1] of the same molecule?
The IC50 was 6.5 nM.

And the Efficacy (%) [2]?
The Efficacy (%) was 90.1%.

And the IC50 [2]?
Its IC50 is 10 nM.

What about the Efficacy (%)*, RGA [3] of the same molecule?
Its Efficacy (%)*, RGA is 88.3%.

What about the IC50 [M], RGA [3] of the same molecule?
Its IC50 [M], RGA is 5.6e-09 M.

What about the Efficacy (%)*, RGA [4] of the same molecule?
The Efficacy (%)*, RGA was 52.7%.

What about the IC50 [M], RGA [4] of the same molecule?
The IC50 [M], RGA was 5e-08 M.

And the Efficacy (%) [5]?
Its Efficacy (%) is 78.5%.

And the IC50 [5]?
The IC50 was 10 nM.

What about the Efficacy (%) [6] of the same molecule?
The Efficacy (%) was 90.3%.

What about the IC50 [6] of the same molecule?
The IC50 was 6.6 nM.

And the Kd [7]?
The Kd was 6.2 nM.

What about the Kd [8] of the same molecule?
Its Kd is 6.3 nM.

Which results are given for “MA5-23711 (Thermo Fisher Scientific, clone 22616) (antibody)”?
Efficacy (%) [1]: 70.5%; IC50 [1]: 29 nM; Efficacy (%) [2]: 51.1%; IC50 [2]: 60 nM; Efficacy (%)*, RGA [3]: 47.6%; Efficacy (%)*, RGA [4]: 19.9%; Efficacy (%) [5]: 34.1%; IC50 [5]: 19 nM; Efficacy (%) [6]: 62.3%; Kd [7]: 2 nM; Kd [8]: 3.6 nM

Which Efficacy (%) [1] does the source give for “MA5-30695 (Thermo Fisher Scientific, clone 9) (antibody)” here?
The Efficacy (%) was 0%.

What about the Efficacy (%) [2] of the same molecule?
The Efficacy (%) was 0%.

And the Efficacy (%)*, RGA [3]?
Its Efficacy (%)*, RGA is 15.6%.

And the Efficacy (%)*, RGA [4]?
The Efficacy (%)*, RGA was 23.9%.

What about the Efficacy (%) [5] of the same molecule?
Its Efficacy (%) is 0%.

And the Efficacy (%) [6]?
Its Efficacy (%) is 1.5%.

Which Efficacy (%) [1] does the source give for “MA5-30696 (Thermo Fisher Scientific, clone 12) (antibody)” here?
The Efficacy (%) was 3.1%.

And the Efficacy (%) [2]?
Its Efficacy (%) is 8.1%.

What about the Efficacy (%)*, RGA [3] of the same molecule?
Its Efficacy (%)*, RGA is 17.2%.

What about the Efficacy (%)*, RGA [4] of the same molecule?
The Efficacy (%)*, RGA was 4.9%.

And the Efficacy (%) [5]?
The Efficacy (%) was 4.7%.

And the Efficacy (%) [6]?
The Efficacy (%) was 4.3%.

Which Efficacy (%), Stat3 reporter gene assay [3] does the source give for “TPP-14250 (R&D Systems, #MAB218) (antibody)” here?
The Efficacy (%), Stat3 reporter gene assay was 69.1%.

What about the IC50 [M], Stat3 reporter gene assay [3] of the same molecule?
Its IC50 [M], Stat3 reporter gene assay is 1.4e-07 M.

What about the Efficacy (%), Stat3 reporter gene assay [4] of the same molecule?
The Efficacy (%), Stat3 reporter gene assay was 27.1%.

What about the IC50 [M], Stat3 reporter gene assay [4] of the same molecule?
The IC50 [M], Stat3 reporter gene assay was 2.4e-10 M.

What about the Efficacy (%) [5] of the same molecule?
Its Efficacy (%) is 81.1%.

And the IC50 [5]?
Its IC50 is 15 nM.

And the Efficacy (%) [6]?
The Efficacy (%) was 81.1%.

What about the IC50 [6] of the same molecule?
Its IC50 is 8 nM.

B1: TPP-26333 (antibody, IgG1, V domains shown)
VH: EVQLLESGGGLVQPGGSLRLSCAASGFTFSSYGFHWVRQAPGKGLEWVSVISYDGSYKYYADSVKGRFTISRDNSKNTLYLQMNSLRAEDTAVYYCAAGVPDYWGQGTLVTVSS
VL: QSVLTQPPSASGTPGQRVTISCTGSSSNIGAGYDVHWYQQLPGTAPKLLIYSNNERPSGVPDRFSGSKSGTSASLAISGLRSEDEADYYCAAWDDSLNGPVFGGGTKLTVL
Does B1 bind [9]?
Result: no binding

B2: TPP-18087 (antibody, mouse IgG1, V domains shown)
VH: EVQLLESGGGLVQPGGSLRLSCAASGFTFSHYDMNWLRQAPGKGLEWVGVISYDGSNKFYADFVKGRFTISRDNSKNTLYLQMNSLRAEDTAVYYCARTPGSHFDYWGQGTLVTVSS
VL: QSVLTQPPSASGTPGQRVTISCSGSSSNIGNNAVNWYQQLPGTAPKLLIYYDDLLPSGVPDRFSGSKSGTSASLAISGLRSEDEADYYCSAWDDSLNGVVFGGGTKLTVLG
notes: mIgG1, Lambda
How did the Efficacy (%) [10] turn out when B2 was run?
The Efficacy (%) was 0%.

What about the “Efficacy (%)” value [11] of the same molecule?
Its value is 25%.

And the Efficacy (%) (RGA) [12]?
Its Efficacy (%) (RGA) is 47.7%.

And the Efficacy (%) (RGA) [13]?
The Efficacy (%) (RGA) was 47.8%.
